Paper PMC4148261
Where no end group is shown, it is not given here.

Target: Recombinant His-tagged Hsp70 protein, equivalent to HSPA1A
Assay: ELISA; peptide ELISA: heat shock proteins coated on MaxiSorp plates (1 µg/well/100 µl, carbonate buffer pH 9.6, 4°C overnight), blocked with PBS 2% BSA; CF-labeled peptides 100, 50, 25 ng/ml, 27°C 30 min; fluorescence counts read

## TKDNNLLGRFELSG (also: carboxyfluorescein (CF) label, position not given here) [carboxy-fluorescein (CF-) labeled 14-mer tumor penetrating peptide (TPP)]
  fluorescence counts: 1200 counts
